Values belong to the substance of their own block, whether it stands above or below them.
Key:
[1] = molecular target: KRas G12D, site-specifically mono-biotinylated by sortase-mediated ligation (GDP-loaded) (UniProt P01116); assay: SPR
KRas G12D (GDP-loaded) [2] = molecular target: KRas G12D (GDP-loaded) (UniProt P01116); assay: ITC
KRas G12D (GDP-loaded) [3] = molecular target: KRas G12D (GDP-loaded) (UniProt P01116); assay: thermal shift assay
KRas wild-type = KRas wild-type (UniProt P01116); assay: ITC

Kd [1]: > 1000 nM
Substance: cyclorasin 9A5 (peptide)

Kd (KRas G12D (GDP-loaded) [2]): 21 nM | stoichiometry N (KRas G12D (GDP-loaded) [2]): 0.625 | ΔTm (KRas G12D (GDP-loaded) [3]): 11.5 °C
Substance: KRpep-2d (peptide)

Kd [1]: > 1000 nM
Substance: SAH-SOS1A (from UniProt Q07889 929-944) (peptide)

Kd (KRas wild-type): 6 nM | stoichiometry N (KRas wild-type): 0.554
Substance: Raf-RBD (from UniProt P04049 56-131) (domain or fragment)

— article doi:10.1101/636563
